Reference: US20240158515A1 (Regeneron, published 2024)

T1: murine FGFR3b expressed with a C-terminal myc-myc-hexahistidine tag (mFGFR3b.mmH) (murine)
T1 construct: also called REGN3215; monomeric murine FGFR3b
T1 chain: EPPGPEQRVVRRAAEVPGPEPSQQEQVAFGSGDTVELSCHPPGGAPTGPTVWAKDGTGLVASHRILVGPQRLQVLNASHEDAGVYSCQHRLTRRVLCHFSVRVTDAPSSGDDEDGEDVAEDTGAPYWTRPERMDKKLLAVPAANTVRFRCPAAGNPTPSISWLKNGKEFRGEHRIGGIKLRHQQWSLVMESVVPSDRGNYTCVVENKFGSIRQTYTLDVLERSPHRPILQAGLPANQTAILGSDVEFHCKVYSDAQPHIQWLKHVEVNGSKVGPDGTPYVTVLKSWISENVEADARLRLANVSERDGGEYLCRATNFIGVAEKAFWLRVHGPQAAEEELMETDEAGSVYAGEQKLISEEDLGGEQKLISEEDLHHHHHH

T2: human FGFR3b expressed with a C-terminal myc-myc-hexahistidine tag (hFGFR3b.mmH) (human)
T2 construct: also called REGN3152; monomeric human FGFR3b
T2 chain: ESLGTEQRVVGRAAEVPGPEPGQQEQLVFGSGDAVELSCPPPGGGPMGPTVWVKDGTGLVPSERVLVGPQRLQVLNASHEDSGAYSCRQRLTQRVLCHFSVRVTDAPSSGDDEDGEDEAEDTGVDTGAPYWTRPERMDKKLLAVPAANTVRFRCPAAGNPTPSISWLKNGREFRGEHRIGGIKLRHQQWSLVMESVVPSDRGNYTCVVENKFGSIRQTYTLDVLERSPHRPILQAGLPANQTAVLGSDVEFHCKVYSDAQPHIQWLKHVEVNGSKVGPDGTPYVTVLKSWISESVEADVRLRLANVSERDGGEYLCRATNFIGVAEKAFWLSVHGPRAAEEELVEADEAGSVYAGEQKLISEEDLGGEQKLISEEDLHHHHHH

T3: cynomolgus FGFR3b expressed with a C-terminal myc-myc-hexahistidine tag (mfFGFR3b.mmH) (cynomolgus)
T3 construct: also called REGN3521; mf FGFR3b ecto (R357G)(E23-G377;R357G).mmH
T3 chain: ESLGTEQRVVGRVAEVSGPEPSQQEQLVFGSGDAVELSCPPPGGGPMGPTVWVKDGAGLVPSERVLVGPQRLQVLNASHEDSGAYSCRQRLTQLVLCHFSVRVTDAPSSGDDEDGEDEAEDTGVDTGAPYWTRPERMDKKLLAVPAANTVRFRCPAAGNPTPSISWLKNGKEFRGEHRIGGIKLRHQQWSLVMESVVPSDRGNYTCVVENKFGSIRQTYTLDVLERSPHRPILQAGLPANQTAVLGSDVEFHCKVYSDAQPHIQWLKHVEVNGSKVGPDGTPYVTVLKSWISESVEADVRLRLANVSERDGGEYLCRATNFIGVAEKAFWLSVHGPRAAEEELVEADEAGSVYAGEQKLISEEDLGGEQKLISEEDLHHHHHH

T4: human FGFR3b expressed with a C-terminal murine Fc tag (hFGFR3b.mFc) (human)
T4 construct: called dimeric; also called REGN3153; dimeric human FGFR3b
T4 chain: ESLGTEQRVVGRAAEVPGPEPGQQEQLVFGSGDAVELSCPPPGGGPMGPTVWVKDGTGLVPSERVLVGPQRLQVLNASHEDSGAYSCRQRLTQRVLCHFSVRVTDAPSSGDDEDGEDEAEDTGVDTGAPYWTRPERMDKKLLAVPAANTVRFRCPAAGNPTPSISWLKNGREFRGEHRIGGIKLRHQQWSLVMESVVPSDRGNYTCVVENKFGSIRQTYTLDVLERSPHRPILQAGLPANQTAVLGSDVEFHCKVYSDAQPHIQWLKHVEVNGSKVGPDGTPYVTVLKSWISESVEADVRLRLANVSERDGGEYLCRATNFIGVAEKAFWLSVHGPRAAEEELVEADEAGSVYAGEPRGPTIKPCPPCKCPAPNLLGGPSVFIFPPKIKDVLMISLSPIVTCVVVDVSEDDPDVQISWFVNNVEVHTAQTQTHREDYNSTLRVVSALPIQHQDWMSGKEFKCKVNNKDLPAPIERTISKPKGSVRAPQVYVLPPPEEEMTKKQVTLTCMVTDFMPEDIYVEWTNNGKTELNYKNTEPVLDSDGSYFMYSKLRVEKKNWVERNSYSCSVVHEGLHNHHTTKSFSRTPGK


Tests used:
[1] = biological target: T1, murine FGFR3b expressed with a …; assay: SPR Biacore, mAb captured on anti-hFc, 25C; row marked NB
Method: (§1) The CM5 Biacore sensor surface was derivatized by amine coupling with a monoclonal mouse anti-human Fc monoclonal antibody (REGN2567). […] Antibody-reagent association was monitored for 5 minutes while dissociation in HBS-EP running buffer was monitored for 10 minutes. At the end of each cycle, the anti-FGFR3 antibody capture surface was regenerated using a 10 sec injection of 20 mM phosphoric acid. All binding kinetics experiments were performed at 25° C.
(§2) The specific SPR-Biacore sensorgrams were obtained by a double referencing procedure. The double referencing was performed by first subtracting the signal of each injection over a reference surface (anti-hFc) from the signal over the experimental surface (anti-hFc-captured anti-FGFR3 antibodies) thereby removing contributions from refractive index changes. In addition, running buffer injections were performed to allow subtraction of the signal changes resulting from the dissociation of captured antibodies from the coupled anti-hFc surface. Kinetic association (kₐ) and dissociation (kd) rate constants were determined by fitting the real-time sensorgrams to a 1:1 binding model using Scrubber v2.0c curve fitting software.

[2] = biological target: T5, human FGFR3c expressed with a C-terminal myc-myc-hexahistidine tag (hFGFR3c.mmH) (human, UniProt P22607 23-375); assay: SPR Biacore, mAb captured on anti-hFc, 25C
T5 construct: also called REGN3155; monomeric human FGFR3c
Method: as §1, §2

[3] = biological target: T2, human FGFR3b expressed with a …; assay: SPR Biacore, mAb captured on anti-hFc, 25C
Method: as §1, §2

[4] = biological target: T3, cynomolgus FGFR3b expressed with a …; assay: SPR Biacore, mAb captured on anti-hFc, 25C
Method: as §1, §2

[5] = biological target: T4, human FGFR3b expressed with a …; assay: SPR Biacore, mAb captured on anti-hFc, 25C
Method: as §1, §2

[6] = biological target: T1, murine FGFR3b expressed with a …; assay: SPR Biacore, mAb captured on anti-hFc, 25C
Method: as §1, §2

[7] = biological target: T5, human FGFR3c expressed with a …; assay: SPR Biacore, mAb captured on anti-hFc, 25C; row marked NB
Method: as §1, §2

[8] = biological target: T4, human FGFR3b expressed with a …; assay: competition ELISA: 4 nM hFGFR3b-mFc binding to plate-coated hFGF acidic
Method: The fixed concentration of hFGFR3b or hFGFR3c proteins was selected to be near the concentration that generated 50% of the maximal binding (EC₅₀ value) to plate-adhered hFGF acidic or hFGF basic protein. […] The plates were then developed using TMB substrate solution (BD Biosciences) according to the manufacturer's recommended procedure and absorbance at 450 nm was measured on a Victor X5 plate reader.
Binding data were analyzed using a sigmoidal (four-parameter logistic) dose-response model using GraphPad Prism software. […] Percent blocking of FGFR3 antibody at a given concentration was calculated based on the formula shown below.
The ability of anti-FGFR3 antibodies to block human FGFR3b binding to hFGF acidic protein or hFGFR3c binding to hFGF acidic or hFGF basic proteins was evaluated using a sandwich ELISA-based blocking assay.

| Binder | 90 nM hFGFR3b.mmH Bind (RU) [3] [RU] | Kd [3] [nM] | koff [3] [s⁻¹] | kon [3] [M⁻¹ s⁻¹] | t½ [3] [min] | 90 nM mfFGFR3b.mmH Bind (RU) [4] [RU] | Kd [4] [nM] | koff [4] [s⁻¹] | kon [4] [M⁻¹ s⁻¹] | t½ [4] [min] | 30 nM hFGFR3b.mFc Bind (RU) [5] [RU] | Kd [5] [nM] | koff [5] [s⁻¹] | kon [5] [M⁻¹ s⁻¹] | t½ [5] [min] | further results |
| --- | --- | --- | --- | --- | --- | --- | --- | --- | --- | --- | --- | --- | --- | --- | --- | --- |
| H4H30045P (antibody, human IgG4 S228P, kappa, V domains shown, HCVR 179, LCVR 187) VH: QVQLVQSGAEVKKPGASVKVSCKTSGYRFVNYGFSWVRQAPGQGLEWMGWISPYNGNTNYIQNLQDRITMTTDTSTNTAYMELTNLRSDDTAVYYCATLTGVHFDYWGQGTLVTVSS VL: AIQMTQSPSSLSASVGDRVTITCRASQGIRNDLGWYQQKPGKAPNLLIFETSRLQSGVPSRFSGSGSGTDFTLTINSLQPEDFATYYCLQDYNYPWTFGQGTKVEIKR | 124 | 16.2 | 0.00624 | 385000 | 1.9 | 71.9 | 20.6 | 0.00882 | 429000 | 1.3 | 266 | 0.581 | 0.000161 | 277000 | 71.8 | 90 nM mFGFR3b.mmH Bind (RU) [1]: 2.4 RU; 90 nM hFGFR3c.mmH Bind (RU) [2]: 77.1 RU; Kd [2]: 19.6 nM; koff [2]: 0.00746 s⁻¹; kon [2]: 381000 M⁻¹ s⁻¹; t½ [2]: 1.5 min; binding result [6]: no binding (tested: 90 nM) |
| H4H30066P (antibody, human IgG4 S228P, kappa, V domains shown, HCVR 22, LCVR 30) VH: QVQLVQSGAEVKKPGASVKVSCKVSGYTLTELSMHWVRQAPGKGLEWMGGFDPEDGEIIYAQKFQGRVTMTEDTSTDTAYMDLSSLTSEDTAVYYCATEKQQLVRKYYFYYGLAVWGQGTTVTVSS VL: not shown | 224 | 1.28 | 0.000635 | 496000 | 18.2 | 203 | 1.99 | 0.000779 | 391000 | 14.8 | 282 | ≤ 0.0158 | ≤ 1e-05 | 632000 | ≥ 1160 | 90 nM hFGFR3c.mmH Bind (RU) [7]: 0.5 RU; % Blocking at 200 nM mAb [8]: 90%; IC50 [8]: 3.2 nM; binding result [2]: no binding (tested: 90 nM); 90 nM mFGFR3b.mmH Bind (RU) [6]: 64.6 RU; Kd [6]: 16.9 nM; koff [6]: 0.00487 s⁻¹; kon [6]: 288000 M⁻¹ s⁻¹; t½ [6]: 2.4 min |
